Series [1] concerns the target T1, cysteine-tRNA synthetase (CysRS) (Haemophilus influenzae) (UniProt P43816).
T1 sequence: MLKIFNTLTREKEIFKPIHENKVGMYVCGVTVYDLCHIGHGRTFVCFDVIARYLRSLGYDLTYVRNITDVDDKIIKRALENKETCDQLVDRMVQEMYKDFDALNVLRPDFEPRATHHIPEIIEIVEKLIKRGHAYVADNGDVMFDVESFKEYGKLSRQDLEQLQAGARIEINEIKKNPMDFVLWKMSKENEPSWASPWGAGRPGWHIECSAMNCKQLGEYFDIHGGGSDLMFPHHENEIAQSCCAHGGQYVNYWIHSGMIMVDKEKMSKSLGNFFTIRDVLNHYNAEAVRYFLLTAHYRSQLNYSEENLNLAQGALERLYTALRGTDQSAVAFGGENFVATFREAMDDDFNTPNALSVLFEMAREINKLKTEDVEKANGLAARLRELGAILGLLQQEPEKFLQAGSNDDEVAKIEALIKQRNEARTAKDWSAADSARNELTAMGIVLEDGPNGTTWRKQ
The note with it: kcat/Km of aminoacylation, 37 C; relative 1.4.

Series [2] deals with T2, cysteine-tRNA synthetase (CysRS) (Escherichia coli) (UniProt P21888).
T2 sequence: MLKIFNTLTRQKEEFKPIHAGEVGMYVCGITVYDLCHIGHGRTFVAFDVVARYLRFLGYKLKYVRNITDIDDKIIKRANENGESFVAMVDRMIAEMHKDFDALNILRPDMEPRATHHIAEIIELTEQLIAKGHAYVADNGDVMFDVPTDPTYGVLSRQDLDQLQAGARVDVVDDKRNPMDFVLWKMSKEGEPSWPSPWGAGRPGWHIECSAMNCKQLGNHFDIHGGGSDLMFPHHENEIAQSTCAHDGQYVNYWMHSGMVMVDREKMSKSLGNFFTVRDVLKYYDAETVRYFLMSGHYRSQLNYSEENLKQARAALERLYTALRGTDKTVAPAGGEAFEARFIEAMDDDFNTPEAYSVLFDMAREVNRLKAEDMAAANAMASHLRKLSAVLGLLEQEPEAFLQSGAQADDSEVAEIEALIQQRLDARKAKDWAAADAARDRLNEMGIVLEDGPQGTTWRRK
Particulars: kcat/Km of aminoacylation, 37 C; relative 1.6.

The text below walks through data of US6448059.

On to B. subtilis tRNACys, for which the activity in series [1] stood at 250000 M⁻¹ s⁻¹; in series [2], 340000 M⁻¹ s⁻¹.
